In patent US20260218128A1 (CARSGEN LIFE SCIENCES, published 2026):
Numbering of substitutions follows the chain as printed.

T1: recombinant hMOG_his (human, UniProt Q16653 30-154, limits assumed)
T1 construct: also called human MOG antigen; not shown: His tag
T1 sequence: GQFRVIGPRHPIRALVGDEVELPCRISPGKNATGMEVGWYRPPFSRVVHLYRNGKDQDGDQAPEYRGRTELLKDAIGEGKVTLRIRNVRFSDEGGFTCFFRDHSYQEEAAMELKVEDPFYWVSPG

T2: human MOG overexpressed on cells (293T-hMOG, K562-hMOG) (human, UniProt Q16653 30-247)
T2 construct: Cells overexpressing human MOG built by conventional techniques; also called K562-huMOG
T2 chain: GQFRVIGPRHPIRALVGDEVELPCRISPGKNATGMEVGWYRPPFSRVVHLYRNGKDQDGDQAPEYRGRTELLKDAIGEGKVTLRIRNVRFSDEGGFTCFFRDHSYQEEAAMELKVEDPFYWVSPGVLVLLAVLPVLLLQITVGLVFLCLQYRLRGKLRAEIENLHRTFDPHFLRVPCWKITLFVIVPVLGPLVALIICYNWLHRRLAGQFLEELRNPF

T3: mouse MOG overexpressed on cells (293T-mMOG, K562-mMOG) (mouse, UniProt Q61885 29-246)
T3 construct: whole, on cells
T3 sequence (looked up): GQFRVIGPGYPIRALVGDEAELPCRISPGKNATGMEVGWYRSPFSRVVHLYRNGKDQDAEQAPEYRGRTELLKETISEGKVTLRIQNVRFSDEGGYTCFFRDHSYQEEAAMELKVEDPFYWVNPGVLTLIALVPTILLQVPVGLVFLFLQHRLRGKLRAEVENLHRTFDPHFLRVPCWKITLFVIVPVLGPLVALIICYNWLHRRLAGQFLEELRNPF

B1: A9 (Fab form) (Fab, V domains shown)
VH: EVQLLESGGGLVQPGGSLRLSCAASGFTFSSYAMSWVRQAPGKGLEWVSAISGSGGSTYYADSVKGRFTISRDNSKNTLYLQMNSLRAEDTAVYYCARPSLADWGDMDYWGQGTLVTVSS
VL: DIQMTQSPSTLSASVGDRVTITCRASQSISSWLAWYQQKPGKAPKLLIYDASSLESGVPSRFSGSGSGTEFTLTISSLQPDDFATYYCQQYDQYWTFGQGTKVEIKR
notes: also called antibody A9
B2: A12 (Fab form) (Fab, V domains shown)
VH: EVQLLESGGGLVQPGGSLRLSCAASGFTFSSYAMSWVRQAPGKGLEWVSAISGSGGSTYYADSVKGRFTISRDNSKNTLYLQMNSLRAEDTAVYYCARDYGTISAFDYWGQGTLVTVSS
VL: B1 VL with D92G, Q93I, Y94P
notes: Fully human anti-MOG clone tested in Fab form; also called antibody A12
B3: A11 (Fab form) (Fab, V domains shown)
VH: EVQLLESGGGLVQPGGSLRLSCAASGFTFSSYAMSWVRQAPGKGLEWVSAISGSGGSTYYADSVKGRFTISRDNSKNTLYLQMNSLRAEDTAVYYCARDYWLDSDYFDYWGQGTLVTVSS
VL: B1 VL with Y91V, D92Y, Q93I, W95S
notes: Fully human anti-MOG clone tested in Fab form; also called antibody A11; All [sic]
B4: A3 (Fab form) (Fab, V domains shown)
VH: QVQLVQSGAEVKKPGSSVKVSCKASGGTFSSYAISWVRQAPGQGLEWMGGIIPIFGTANYAQKFQGRVTITADKSTSTAYMELSSLRSEDTAVYYCARGWYFFDAGFDYWGQGTTVTVSS
VL: DIQMTQSPSTLSASVGDRVTITCRASQSISSWLAWYQQKPGKAPKLLIYDASSLESGVPSRFSGSGSGTEFTLTISSLQPDDFATYYCQQYDSPLLTFGQGTKVEIKR
notes: Fully human anti-MOG clone tested in Fab form; also called antibody A3
B5: A7 (Fab form) (Fab, V domains shown)
VH: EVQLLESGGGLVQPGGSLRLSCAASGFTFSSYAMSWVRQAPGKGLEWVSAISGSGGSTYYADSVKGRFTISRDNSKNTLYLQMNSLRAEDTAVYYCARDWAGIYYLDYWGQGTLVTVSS
VL: B4 VL with Y91S, S93T, P94Y, L95P, L96R
notes: Fully human anti-MOG clone tested in Fab form; also called antibody A7
B6: A5 (Fab form) (Fab, V domains shown)
VH: QVQLVQSGAEVKKPGSSVKVSCKASGGTFSSYAISWVRQAPGQGLEWMGGIIPIFGTANYAQKFQGRVTITADKSTSTAYMELSSLRSEDTAVYYCARAPYSPTYYPFDYWGQGTTVTVSS
VL: B4 VL with D92S, S93M, P94D, L95H
notes: Fully human anti-MOG clone tested in Fab form; also called antibody A5
B7: A4 (Fab form) (Fab, V domains shown)
VH: B4 VH with G99E, F102W, F103P, A105N, G106P
VL: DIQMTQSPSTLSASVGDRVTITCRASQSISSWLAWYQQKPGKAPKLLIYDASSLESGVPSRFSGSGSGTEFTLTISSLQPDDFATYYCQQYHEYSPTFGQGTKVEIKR
notes: Fully human anti-MOG clone tested in Fab form; also called antibody A4
B8: A1 (Fab form) (Fab, V domains shown)
VH: QVQLVQSGAEVKKPGSSVKVSCKASGGTFSSYAISWVRQAPGQGLEWMGGIIPIFGTANYAQKFQGRVTITADKSTSTAYMELSSLRSEDTAVYYCARGYFSEEAMDYWGQGTTVTVSS
VL: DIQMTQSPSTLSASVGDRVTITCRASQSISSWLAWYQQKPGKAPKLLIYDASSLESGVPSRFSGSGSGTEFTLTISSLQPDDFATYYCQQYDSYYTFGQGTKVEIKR
notes: Fully human anti-MOG clone tested in Fab form; also called antibody A1

Each binder was assayed against T1, recombinant hMOG_his (assay: SPR, Biacore T200; MOG_His amine-coupled on CM5, Fab as analyte, 1:1 Langmuir fit).
In the case of B1, the Kd is reported as 2.28 nM, the koff is reported as 0.000287 s⁻¹ and the kon is reported as 125000 M⁻¹ s⁻¹.
For B2, the Kd was 6.83 nM, the koff was 0.00103 s⁻¹ and the kon was 151000 M⁻¹ s⁻¹.
With B3 the Kd was 17.6 nM, the koff was 0.00432 s⁻¹ and the kon was 246000 M⁻¹ s⁻¹.
For B4, the Kd was 5.92 nM, the koff was 0.00139 s⁻¹ and the kon was 234000 M⁻¹ s⁻¹.
B5 showed a Kd of 25.6 nM, a koff of 0.00166 s⁻¹ and a kon of 65000 M⁻¹ s⁻¹.
B6 gave a Kd of 27.6 nM, a koff of 0.00278 s⁻¹ and a kon of 101000 M⁻¹ s⁻¹.
B7 gave a Kd of 24 nM, a koff of 0.000516 s⁻¹ and a kon of 21500 M⁻¹ s⁻¹.
Work on B8 yielded a Kd of 7.26 nM, a koff of 0.00193 s⁻¹ and a kon of 266000 M⁻¹ s⁻¹.

Target: T2, human MOG overexpressed on cells …
Assay: flow cytometry, Fab 5 µg/mL on 293T-hMOG cells, Anti-Fc-FITC secondary, MFI; controls 293T cells and NA (no antibody)
B1: binds.
B2: binds.
B3: binds.
B4: binds.
B5: binds.
B6: binds.
B7: binds.
B8: binds.

Each binder was assayed against T3, mouse MOG overexpressed on cells … (assay: flow cytometry, Fab on 293T-mMOG cells, Anti-Fc-FITC secondary, MFI).
B1: no binding.
B2: no binding.
B3: no binding.
B4: no binding.
B8: no binding.

What follows are binders tested against T3, mouse MOG overexpressed on cells … (assay: flow cytometry, Fab 5 µg/mL on 293T-mMOG cells, Anti-Fc-FITC secondary, MFI; controls 293T cells and NA (no antibody)).
B5: binds.
B6: binds.
B7: binds.
